The data set concerns the molecule itself. The data set can be described thus: oligomeric state by size exclusion chromatography (self-association). The text has this:
FIG. 1. Size exclusion chromatography of LanYFP (tetramer), dLanYFP (dimer), and mNeonGreen (monomer). The exemplary proteins were detected with 480 nm excitation and 530 nm emission, compared to mCherry (monomer) detected with 540 nm excitation and 620 nm emission. Each exemplary fluorescent protein was run simultaneously with mCherry as a size standard with detection at both wavelengths; mCherry consistently eluted with the same peak shape and retention time. Curves are normalized to peak fluorescence.
Purified and dialyzed fluorescent protein samples were diluted into 50 mM Tris-HCl pH 7.5, 100 mM NaCl and filtered through 0.2 μm filters immediately prior to injection into a Shimadzu Nexera UHPLC equipped with a Waters BEH200 1.7 μm 4.6×150 mm size exclusion column and 4.6×30 mm guard column. Samples were run in the same buffer at a flow rate of 0.3 ml per minute for a total run time of 20 minutes. Fluorescence of the eluted protein was detected with an RF-20Axs fluorescence detector (Shimadzu) with 480 nm and 540 nm excitation and 530 nm and 620 nm emission wavelengths. Each LanYFP or variant sample was co-injected with mCherry, which had been purified under identical conditions and which served as a monomeric size standard.

B1: monomeric NeonGreen (mNeonGreen) (other)
chain: MVSKGEEDNMASLPATHELHIFGSINGVDFDMVGQGTGNPNDGYEELNLKSTKGDLQFSPWILVPHIGYGFHQYLPYPDGMSPFQAAMVDGSGYQVHRTMQFEDGASLTVNYRYTYEGSHIKGEAQVKGTGFPADGPVMTNSLTAADWCRSKKTYPNDKTIISTFKWSYTTGNGKRYRSTARTTYTFAKPMAANYLKNQPMYVFRKTELKHSKTELNFKEWQKAFTDVMGMDELYK
notes: not shown: N-terminal 6xHis tag and linker encoded by vector pNCS
On to B1, for which the binding result is listed as “no binding”.
